Source: patent US20180273635A1 (Zymeworks, published 2018)

Tests used:
[1] = target: T1, Recombinant human HER2 (human, UniProt P04626 23-652); experiment: SPR, Ka ratio to WT pertuzumab
T1 construct: extracellular domain; Analyte of the SPR assays; also called HER2 ECD; ECD2 of HER2
Protocol: (§1) The affinity towards HER2 ECD of the samples was measured by SPR on a Biacore T200 as follows. Between 2000 and 4000 RU of anti-human Fc injected at concentration between 5 and 10 μg/ml was immobilized on a CM5 chip using standard amine coupling. Antigen-binding constructs were captured on the anti-human Fc (injected at concentration at 0.51 microg/mL in PBST, 1 min at 10 microl/min) at response levels ranging from 120-270 RU. […] HER2 dilutions were analyzed in duplicates. Sensograms were fit globally to a 1: 1 Langmuir binding model, using the software provided with the Biacore T200. All experiments were conducted at 25° C.

[2] = target: T1, Recombinant human HER2; experiment: SPR as in Example 3, average of three independent runs
Protocol: as §1

[3] = target: T2, Recombinant human HER2 (human, UniProt P04626 23-652); experiment: SPR, post-SEC; ratio to WT v10013
T2 construct: extracellular domain; analyte of the SPR assays; also called HER2 ECD; ECD2 of HER2
Protocol: as §1
(§2) The affinity of antigen-binding constructs in OA format was determined by SPR following protein A purification. […] Antigen-binding constructs in FSA format were purified by protein A affinity and SEC prior to assessment of affinity by SPR.

[4] = target: T2, Recombinant human HER2; experiment: SPR, variant captured on anti-human Fc, HER2 flowed, 25 C, post-SEC
Protocol: as §1, §2

[5] = target: T2, Recombinant human HER2; experiment: SPR, pre-SEC; ratio to WT v10013
Protocol: as §1, §2

[6] = target: T2, Recombinant human HER2; experiment: SPR, variant captured on anti-human Fc, HER2 flowed, 25 C, pre-SEC
Protocol: as §1

Binder | SPR Ka, mut/Ka, WT [1] [fold] | Kd [2] [nM] | Ka, mut/Ka, WT [3] | Kd [4] [nM] | Ka, mut/Ka, WT [5] | Kd [6] [nM]
Variant 4431 (antibody, name in Kabat numbering, V domains shown, also called literature pertuzumab variant) VH: EVQLVESGGGLVQPGGSLRLSCAASGFTFTDYTMDWVRQAPGKGLEWVADVNPNSGGSIYNQRFKGRFTLSVDRSKNTLYLQMNSLRAEDTAVYYCARNLGPSFYFDYWGQGTLVTVSS VL: DIQMTQSPSSLSASVGDRVTITCKASQDVSAGVAWYQQKPGKAPKLLIYSASYRYTGVPSRFSGSGSGTDFTLTISSLQPEDFATYYCQQYYIYPYTFGQGTKVEIK | 3.9 | 5 |  |  |  | 
Variant 4433 (antibody, name in Kabat numbering, V domains shown, also called literature pertuzumab variant) VH: EVQLVESGGGLVQPGGSLRLSCAASGFTFTDYTMDWVRQAPGKGLEWVADVNPNSGGSIYNQRFKGRFTLSVDRSKNTLYLQMNSLRAEDTAVYYCARNLGPSFYFDYWGQGTLVTVSS VL: DIQMTQSPSSLSASVGDRVTITCKASQDVSIGVAWYQQKPGKAPKLLIYSASYRYTGVPSRFSGSGSGTDFTLTISSLQPEDFATYYCQQYYIYPFTFGQGTKVEIK | 1.3 | 10 |  |  |  | 
Variant 4432 (antibody, name in Kabat numbering, V domains shown, also called literature pertuzumab variant) VH: EVQLVESGGGLVQPGGSLRLSCAASGFTFTDYTMDWVRQAPGKGLEWVADVNPNSGGSIYNQRFKGRFTLSVDRSKNTLYLQMNSLRAEDTAVYYCARNLGPSFYFDYWGQGTLVTVSS VL: DIQMTQSPSSLSASVGDRVTITCKASQDVSIGVAWYQQKPGKAPKLLIYSASYRYTGVPSRFSGSGSGTDFTLTISSLQPEDFATYYCQQYYIYPATFGQGTKVEIK | 1.7 | 7.7 |  |  |  | 
variant 12534 (antibody, human IgG1, kappa, also called v12534) heavy: EVQLVESGGGLVQPGGSLRLSCAASGFTFADYTMDWVRQAPGKGLEWVADVNPNSGGSIYNQRVKGRFTLSVDRSKNTLYLQMNSLRAEDTAVYYCARNLGPSFYFDYWGQGTLVTVSSASTKGPSVFPLAPSSKSTSGGTAALGCLVKDYFPEPVTVSWNSGALTSGVHTFPAVLQSSGLYSLSSVVTVPSSSLGTQTYICNVNHKPSNTKVDKKVEPKSCDKTHTCPPCPAPELLGGPSVFLFPPKPKDTLMISRTPEVTCVVVDVSHEDPEVKFNWYVDGVEVHNAKTKPREEQYNSTYRVVSVLTVLHQDWLNGKEYKCKVSNKALPAPIEKTISKAKGQPREPQVYVYPPSRDELTKNQVSLTCLVKGFYPSDIAVEWESNGQPENNYKTTPPVLDSDGSFALVSKLTVDKSRWQQGNVFSCSVMHEALHNHYTQKSLSLSPG light: not shown not shown |  |  | 7.4 | 2.8 | 8.3 | 2.4
variant 12611 (antibody, human IgG1, kappa, OA pertuzumab variant, LC Y96A (Kabat); also called v12611) heavy: EVQLVESGGGLVQPGGSLRLSCAASGFTFTDYTMDWVRQAPGKGLEWVADVNPNSGGSIYNQRFKGRFTLSVDRSKNTLYLQMNSLRAEDTAVYYCARNLGPSFYFDYWGQGTLVTVSSASTKGPSVFPLAPSSKSTSGGTAALGCLVKDYFPEPVTVSWNSGALTSGVHTFPAVLQSSGLYSLSSVVTVPSSSLGTQTYICNVNHKPSNTKVDKKVEPKSCDKTHTCPPCPAPELLGGPSVFLFPPKPKDTLMISRTPEVTCVVVDVSHEDPEVKFNWYVDGVEVHNAKTKPREEQYNSTYRVVSVLTVLHQDWLNGKEYKCKVSNKALPAPIEKTISKAKGQPREPQVYVYPPSRDELTKNQVSLTCLVKGFYPSDIAVEWESNGQPENNYKTTPPVLDSDGSFALVSKLTVDKSRWQQGNVFSCSVMHEALHNHYTQKSLSLSPG light: not shown not shown |  |  | 1.8 | 11 | 1.8 | 11
variant 12610 (antibody, human IgG1, kappa, OA pertuzumab variant, HC T30A (Kabat); also called v12610) heavy: EVQLVESGGGLVQPGGSLRLSCAASGFTFADYTMDWVRQAPGKGLEWVADVNPNSGGSIYNQRFKGRFTLSVDRSKNTLYLQMNSLRAEDTAVYYCARNLGPSFYFDYWGQGTLVTVSSASTKGPSVFPLAPSSKSTSGGTAALGCLVKDYFPEPVTVSWNSGALTSGVHTFPAVLQSSGLYSLSSVVTVPSSSLGTQTYICNVNHKPSNTKVDKKVEPKSCDKTHTCPPCPAPELLGGPSVFLFPPKPKDTLMISRTPEVTCVVVDVSHEDPEVKFNWYVDGVEVHNAKTKPREEQYNSTYRVVSVLTVLHQDWLNGKEYKCKVSNKALPAPIEKTISKAKGQPREPQVYVYPPSRDELTKNQVSLTCLVKGFYPSDIAVEWESNGQPENNYKTTPPVLDSDGSFALVSKLTVDKSRWQQGNVFSCSVMHEALHNHYTQKSLSLSPG light: not shown not shown |  |  | 4.5 | 4.6 | 3.9 | 5.1
